From patent US20240000914A1

Target: adeno-associated virus 2 (AAV2) vector capsid (AAV2-nLuc) (adeno-associated virus 2) (UniProt P03135)
Assay: cell-based or functional assay

Chain of UniProt P03135 (P03135 whole entry, the tested form may be a part): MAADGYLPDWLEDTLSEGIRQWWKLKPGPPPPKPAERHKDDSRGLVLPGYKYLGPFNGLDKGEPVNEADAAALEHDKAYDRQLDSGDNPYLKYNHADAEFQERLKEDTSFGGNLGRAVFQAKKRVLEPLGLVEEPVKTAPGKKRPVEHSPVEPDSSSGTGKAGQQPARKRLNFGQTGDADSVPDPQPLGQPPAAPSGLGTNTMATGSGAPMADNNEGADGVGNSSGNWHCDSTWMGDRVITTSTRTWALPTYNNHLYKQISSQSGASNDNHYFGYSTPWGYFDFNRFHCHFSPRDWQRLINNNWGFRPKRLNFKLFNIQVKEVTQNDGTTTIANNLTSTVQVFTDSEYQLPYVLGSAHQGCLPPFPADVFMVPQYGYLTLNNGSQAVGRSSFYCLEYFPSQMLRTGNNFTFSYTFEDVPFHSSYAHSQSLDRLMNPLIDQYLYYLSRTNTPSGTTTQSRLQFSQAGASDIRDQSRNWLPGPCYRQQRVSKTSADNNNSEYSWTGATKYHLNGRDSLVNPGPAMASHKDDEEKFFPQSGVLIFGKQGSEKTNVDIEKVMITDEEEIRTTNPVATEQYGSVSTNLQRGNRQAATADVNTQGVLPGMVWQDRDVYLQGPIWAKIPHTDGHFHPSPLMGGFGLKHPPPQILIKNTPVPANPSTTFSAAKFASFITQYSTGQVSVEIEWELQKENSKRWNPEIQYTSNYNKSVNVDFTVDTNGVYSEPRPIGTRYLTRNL

Substance “human intravenous immunoglobulin (IVIG) (antibody)” has a 50% geometric mean neutralizing reciprocal titer (50% GMT) (50% GMT (reciprocal titer)) of 1280 and a neutralization of AAV2-nLuc transduction (reciprocal dilution) of 1250.
